B1: endophilin ΔH0 mutant (domain or fragment)
chain: GGAEGTKLDDDFKEMERKVDVTSRAVMEIMTKTIEYLQPNPASRAKLSMINTMSKIRGQEKGPGYPQAEALLAEAMLKFGRELGDDCNFGPALGEVGEAMRELSEVKDSLDMEVKQNFIDPLQNLHDKDLREIQHHLKKLEGRRLDFDYKKKRQGKIPDEELRQALEKFDESKEIAESSMFNLLEMDIEQVSQLSALVQAQLEYHKQAVQILQQVTVRLEERIRQASSQPRREYQPKPRMSLEFATGDGTQPNGGLSHTGTPKPAGVQMDQPCCRALYDFEPENEGELGFKEGDIITLTNQIDENWYEGMLHGQSGFFPINYVEILVALPH
modifications: Alexa 594 C5-maleimide on the labelled fraction
B2: lamellipodin C-terminal domain fragment LPD^850–1250 with C-terminal His6 tag (domain or fragment, UniProt Q70E73 850-1250, looked up)
chain: PPPSPLSPVPSVVKQIASQFPPPPTPPAMESQPLKPVPANVAPQSPPAVKAKPKWQPSSIPVPSPDFPPPPPESSLVFPPPPPSPVPAPPPPPPPTASPTPDKSGSPGKKTSKTSSPGGKKPPPTPQRNSSIKSSSGAEHPEPKRPSVDSLVSKFTPPAESGSPSKETLPPPAAPPKPGKLNLSGVNLPGVLQQGCVSAKAPVLSGRGKDSVVEFPSPPSDSDFPPPPPETELPLPPIEIPAVFSGNTSPKVAVVNPQPQQWSKMSVKKAPPPTRPKRNDSTRLTQAEISEQPTMATVVPQVPTSPKSSLSVQPGFLADLNRTLQRKSITRHGSLSSRMSRAEPTATMDDMALPPPPPELLSDQQKAGYGGSHISGYATLRRGPPPAPPKRDQNTKLSRDW
modifications: Alexa 647 succinimidyl ester on the labelled fraction
notes: Synthesized and cloned into pGEX6p1 by Biomatik; also called LPD C-terminal domain; source: E. coli BL21-CodonPlus(DE3)-RIL, purified (Ni-NTA agarose, cation exchange); not shown: His6, C-terminal, kept
B3: full-length rat endophilin A1 (single-cysteine form) (natural protein, UniProt O35179 1-352, looked up)
chain: MSVAGLKKQFHKATQKVSEKVGGAEGTKLDDDFKEMERKVDVTSRAVMEIMTKTIEYLQPNPASRAKLSMINTMSKIRGQEKGPGYPQAEALLAEAMLKFGRELGDDSNFGPALGEVGEAMRELSEVKDSLDMEVKQNFIDPLQNLHDKDLREIQHHLKKLEGRRLDFDYKKKRQGKIPDEELRQALEKFDESKEIAESSMFNLLEMDIEQVSQLSALVQAQLEYHKQAVQILQQVTVRLCERIRQASSQPRREYQPKPRMSLEFATGDGTQPNGGLSHTGTPKPAGVQMDQPSSRALYDFEPENEGELGFKEGDIITLTNQIDENWYEGMLHGQSGFFPINYVEILVALPH
modifications: Alexa 594 or Alexa 488 C5-maleimide on the small labelled fraction (about 4-10 mol%) mixed with unlabelled protein
notes: endophilin A1, rat, full length, mutated to a single-cysteine form for labeling; also called A1 isoform of endophilin, from rat; full-length endophilin
B4: FBP17 (natural protein, UniProt Q96RU3 1-617, looked up)
chain: MSWGTELWDQFDNLEKHTQWGIDILEKYIKFVKERTEIELSYAKQLRNLSKKYQPKKNSKEEEEYKYTSCKAFISNLNEMNDYAGQHEVISENMASQIIVDLARYVQELKQERKSNFHDGRKAQQHIETCWKQLESSKRRFERDCKEADRAQQYFEKMDADINVTKADVEKARQQAQIRHQMAEDSKADYSSILQKFNHEQHEYYHTHIPNIFQKIQEMEERRIVRMGESMKTYAEVDRQVIPIIGKCLDGIVKAAESIDQKNDSQLVIEAYKSGFEPPGDIEFEDYTQPMKRTVSDNSLSNSRGEGKPDLKFGGKSKGKLWPFIKKNKLMSLLTSPHQPPPPPPASASPSAVPNGPQSPKQQKEPLSHRFNEFMTSKPKIHCFRSLKRGLSLKLGATPEDFSNLPPEQRRKKLQQKVDELNKEIQKEMDQRDAITKMKDVYLKNPQMGDPASLDHKLAEVSQNIEKLRVETQKFEAWLAEVEGRLPARSEQARRQSGLYDSQNPPTVNNCAQDRESPDGSYTEEQSQESEMKVLATDFDDEFDDEEPLPAIGTCKALYTFEGQNEGTISVVEGETLYVIEEDKGDGWTRIRRNEDEEGYVPTSYVEVCLDKNAKDS
modifications: Alexa 488 C5-maleimide
notes: Obtained from Harvey McMahon's lab; also called F-BAR family protein FBP17; FBP17 (Alexa 488); source: E. coli BL21-CodonPlus(DE3)-RIL, purified (GSTrap, size exclusion)
B5: full-length human amphiphysin 1 (natural protein, UniProt P49418 1-695, looked up)
chain: MADIKTGIFAKNVQKRLNRAQEKVLQKLGKADETKDEQFEEYVQNFKRQEAEGTRLQRELRGYLAAIKGMQEASMKLTESLHEVYEPDWYGREDVKMVGEKCDVLWEDFHQKLVDGSLLTLDTYLGQFPDIKNRIAKRSRKLVDYDSARHHLEALQSSKRKDESRISKAEEEFQKAQKVFEEFNVDLQEELPSLWSRRVGFYVNTFKNVSSLEAKFHKEIAVLCHKLYEVMTKLGDQHADKAFTIQGAPSDSGPLRIAKTPSPPEEPSPLPSPTASPNHTLAPASPAPARPRSPSQTRKGPPVPPLPKVTPTKELQQENIISFFEDNFVPEISVTTPSQNEVPEVKKEETLLDLDFDPFKPEVTPAGSAGVTHSPMSQTLPWDLWTTSTDLVQPASGGSFNGFTQPQDTSLFTMQTDQSMICNLAESEQAPPTEPKAEEPLAAVTPAVGLDLGMDTRAEEPVEEAVIIPGADADAAVGTLVSAAEGAPGEEAEAEKATVPAGEGVSLEEAKIGTETTEGAESAQPEAEELEATVPQEKVIPSVVIEPASNHEEEGENEITIGAEPKETTEDAAPPGPTSETPELATEQKPIQDPQPTPSAPAMGAADQLASAREASQELPPGFLYKVETLHDFEAANSDELTLQRGDVVLVVPSDSEADQDAGWLVGVKESDWLQYRDLATYKGLFPENFTRRLD
modifications: Alexa 488 C5-maleimide
notes: amphiphysin 1, human, full length; Plasmid from Pietro De Camilli's lab; also called Amph1; Amph1-Alexa 488
B6: third intracellular loop (TIL) of the human β1-adrenergic receptor (aa 246–325) (domain or fragment, UniProt P08588 246-325, looked up)
chain: RVFREAQKQVKKIDSCERRFLGGPARPPSPSPSPVPAPAPPPGPPRPAAAAATAPLANGRAGKRRPSRLVALREQKALKT
modifications: Alexa 488 (5-SDP ester) at the N-terminal on the labelled fraction
notes: β1-adrenergic receptor, human, third intracellular loop, 80 amino acids, aa 246–325; Cloned in pGEX6p1; GST cleaved by PreScission protease; also called TIL-Alexa 488; source: E. coli BL21-CodonPlus(DE3)-RIL, purified (GST Trap, cation exchange)

For data set [1], the target named is full-length rat endophilin A1 (single-cysteine form) (rat) (UniProt O35179).
For data set [2] the target is unchanged. Kind of data set: client partitioning into condensate droplets (confocal microscopy, apparent partition coefficient); endophilin (25 µM) droplets with 10% PEG; Alexa-labeled client at 250 nM to 1 µM mixed in before PEG; 20 mM HEPES, 150 mM NaCl, 1 mM TCEP, pH 7.4, room temperature; apparent.
Data set [3] addresses endophilin N-BAR-only mutant (rat). Put plainly: fluorescence intensity ratio of droplets vs. bulk solution (confocal microscopy); 1 µM Alexa 594-labeled variant with 25 µM of the same unlabeled variant, 10% PEG.
Data set [4] concerns the molecule itself. Described as above.
For data set [5], the target named is B3. Kind of data set: client partitioning into condensate droplets (confocal microscopy, apparent partition coefficient); endophilin (25 µM) droplets with 10% PEG; Alexa-labeled client at 250 nM to 1 µM mixed in before PEG; 20 mM HEPES, 150 mM NaCl, 1 mM TCEP, pH 7.4, room temperature; apparent. The settings on record: both partners purified.
For data set [6], the target named is B3. Put plainly: cell-based or functional assay.

For “PRM7-His: heptameric repeat of a lamellipodin proline-rich motif (aa 970–981) joined by (Gly-Gly-Ser)4 linkers (from UniProt Q70E73 970-981; Q70E73 970-981; Q70E73 970-981; Q70E73 970-981; Q70E73 970-981; Q70E73 970-981; Q70E73 970-981) (designed binder)”, in data set [1], the threshold endophilin concentration for LLPS (10% PEG) in the presence of 10 µM client (10 µM without client) is < 5 µM. In data set [2], the apparent partition coefficient (Kapp) was determined as 26.
Turning to “endophilin N-BAR-only mutant (domain or fragment)”, the fluorescence intensity ratio inside vs. outside droplets in data set [3] stood at 1800.
For the molecule BIN1 isoform 9 (natural protein), the apparent partition coefficient (Kapp) in data set [2] was found to be 267.
As to B1, the “fluorescence intensity ratio inside vs. outside droplets” value in data set [4] amounted to 380.
As for B2, the “apparent partition coefficient (Kapp)” value in data set [5] stood at 515. Besides, the “threshold endophilin concentration for LLPS (10% PEG) in the presence of 10 µM client (10 µM without client)” value in data set [6] was ≤ 5 µM.
For B3, in data set [4], the “fluorescence intensity ratio inside vs. outside droplets” value amounted to 480.
Consider B4, for which the “apparent partition coefficient (Kapp)” value in data set [5] came out at 1130. In addition, in data set [6], the “threshold endophilin concentration for LLPS (10% PEG) in the presence of 10 µM client (10 µM without client)” value turned out to be 15 µM.
The corresponding values for B5 are 352 and 30 µM.
Take B6: the “apparent partition coefficient (Kapp)” value in data set [5] came to 138. Moreover, in data set [6], the “threshold endophilin concentration for LLPS (10% PEG) in the presence of 10 µM client (10 µM without client)” value is ≤ 5 µM.

The record behind these values is article PMC9418313, “Multivalent interactions between molecular components involved in fast endophilin mediated endocytosis drive protein phase separation” (Nature Communications, 2022).
